Test results as given in the supplement of paper PMC9112550, “Optimization of the antimicrobial peptide Bac7 by deep mutational scanning” (BMC Biology, 2022).

system: Escherichia coli TOP10; assay: shrunken log2 fold change of peptide-encoding DNA abundance (4.5 h post-induction vs induction); higher = less antimicrobial activity (less host growth inhibition); conditions: time post-induction: 4.5 h; library: site-saturation at positions 5, 18, 19, 20
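Also: peptides expressed intracellularly from a pBAD plasmid library in pooled LB shake-flask culture, induced with 0.3% L-arabinose, DNA abundance read by NGS, three biological replicates, DESeq2 with apeglm shrinkage.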

First: RRIRARPPRLPRPRPRPVPFPRP
Second: RRIRWRPPRLPRPRPRPVPPPRP
The “shrunken log2 fold change” value of the first is lower: 0.0816 for the first, 0.372 for the second.

First: RRIRPRPPRLPRPRPRPFNTPRP
Second: RRIRVRPPRLPRPRPRPWEIPRP
The “shrunken log2 fold change” value of the first is higher: 0.39 for the first, -0.00992 for the second.

RRIRLRPPRLPRPRPRPFDIPRP and RRIRVRPPRLPRPRPRPWQRPRP are within 0.2 log units of each other in “shrunken log2 fold change” value: -0.0171 for the first, 0.0171 for the second.

Compared with RRIRGRPPRLPRPRPRPLLPPRP, RRIRKRPPRLPRPRPRPNEQPRP is lower in “shrunken log2 fold change” value: 0.895 for the first, 0.11 for the second.

First: RRIRQRPPRLPRPRPRPQNAPRP
Second: RRIRARPPRLPRPRPRPWGNPRP
The “shrunken log2 fold change” value of the first is lower: -0.198 for the first, 0.00277 for the second.

First: RRIRYRPPRLPRPRPRPQMGPRP
Second: RRIRARPPRLPRPRPRPLTRPRP
The “shrunken log2 fold change” value of the first is lower: 0.0669 for the first, 0.284 for the second.

First: RRIRDRPPRLPRPRPRPCTLPRP
Second: RRIRLRPPRLPRPRPRPHRTPRP
The “shrunken log2 fold change” value of the first is lower: -0.302 for the first, -0.0946 for the second.

RRIRHRPPRLPRPRPRPKADPRP and RRIRFRPPRLPRPRPRPARKPRP are within 0.2 log units of each other in “shrunken log2 fold change” value: 0.117 for the first, 0.294 for the second.

Going from RRIRPRPPRLPRPRPRPKQMPRP to RRIRYRPPRLPRPRPRPEYCPRP, the “shrunken log2 fold change” value falls from 0.268 to -0.414.

First: RRIRKRPPRLPRPRPRPTATPRP
Second: RRIRNRPPRLPRPRPRPRQAPRP
The “shrunken log2 fold change” value of the first is higher: 1.4 for the first, 0.0453 for the second.

Compared with RRIRERPPRLPRPRPRPQTKPRP, RRIRLRPPRLPRPRPRPGRPPRP is higher in “shrunken log2 fold change” value: 0.0765 for the first, 0.526 for the second.

RRIRYRPPRLPRPRPRPIIMPRP and RRIRLRPPRLPRPRPRPIPGPRP are within 0.2 log units of each other in “shrunken log2 fold change” value: -0.0214 for the first, 0.00419 for the second.

First: RRIRMRPPRLPRPRPRPTSMPRP
Second: RRIRGRPPRLPRPRPRPWYTPRP
The “shrunken log2 fold change” value of the first is higher: 0.0931 for the first, -0.225 for the second.

First: RRIRMRPPRLPRPRPRPENWPRP
Second: RRIRERPPRLPRPRPRPYAKPRP
The “shrunken log2 fold change” value of the first is higher: 0.795 for the first, -0.329 for the second.

RRIRHRPPRLPRPRPRPVGCPRP and RRIRKRPPRLPRPRPRPSVFPRP are within 0.2 log units of each other in “shrunken log2 fold change” value: 0.0698 for the first, 0.244 for the second.

Compared with RRIRVRPPRLPRPRPRPSEFPRP, RRIRERPPRLPRPRPRPRCGPRP is higher in “shrunken log2 fold change” value: -0.233 for the first, 0.146 for the second.

First: RRIRTRPPRLPRPRPRPRQHPRP
Second: RRIRQRPPRLPRPRPRPPKNPRP
The “shrunken log2 fold change” value of the first is lower: -0.374 for the first, 0.29 for the second.

First: RRIRQRPPRLPRPRPRPMKQPRP
Second: RRIRWRPPRLPRPRPRPKHPPRP
The “shrunken log2 fold change” value of the first is lower: -0.0134 for the first, 0.442 for the second.

Compared with RRIRFRPPRLPRPRPRPDVTPRP, RRIRIRPPRLPRPRPRPCTHPRP is lower in “shrunken log2 fold change” value: -0.302 for the first, -0.791 for the second.

Going from RRIRSRPPRLPRPRPRPPHYPRP to RRIRHRPPRLPRPRPRPPWGPRP, the “shrunken log2 fold change” value rises from 0.132 to 0.347.

Compared with RRIRKRPPRLPRPRPRPRKVPRP, RRIRDRPPRLPRPRPRPRLIPRP is lower in “shrunken log2 fold change” value: 0.596 for the first, -0.189 for the second.

RRIRLRPPRLPRPRPRPRYLPRP and RRIRVRPPRLPRPRPRPGVPPRP are within 0.2 log units of each other in “shrunken log2 fold change” value: -0.0102 for the first, 0.0752 for the second.

Going from RRIRRRPPRLPRPRPRPEHPPRP to RRIRFRPPRLPRPRPRPKIDPRP, the “shrunken log2 fold change” value falls from 3.32 to 0.00783.

RRIRTRPPRLPRPRPRPQPDPRP and RRIRNRPPRLPRPRPRPGQLPRP are within 0.2 log units of each other in “shrunken log2 fold change” value: -0.136 for the first, -0.126 for the second.

Going from RRIRCRPPRLPRPRPRPGCLPRP to RRIRNRPPRLPRPRPRPEVGPRP, the “shrunken log2 fold change” value rises from 0.115 to 0.662.

RRIRLRPPRLPRPRPRPMSKPRP and RRIRQRPPRLPRPRPRPFCRPRP are within 0.2 log units of each other in “shrunken log2 fold change” value: 0.0198 for the first, -0.0325 for the second.

Compared with RRIRQRPPRLPRPRPRPNSTPRP, RRIRIRPPRLPRPRPRPEVIPRP is higher in “shrunken log2 fold change” value: -0.642 for the first, -0.0583 for the second.

RRIRPRPPRLPRPRPRPNWEPRP and RRIRHRPPRLPRPRPRPMFTPRP are within 0.2 log units of each other in “shrunken log2 fold change” value: 0.0541 for the first, -0.102 for the second.

Compared with RRIRLRPPRLPRPRPRPHPWPRP, RRIRVRPPRLPRPRPRPELTPRP is higher in “shrunken log2 fold change” value: -0.0939 for the first, 0.149 for the second.

Going from RRIRGRPPRLPRPRPRPTSWPRP to RRIRWRPPRLPRPRPRPESRPRP, the “shrunken log2 fold change” value falls from 0.782 to 0.323.

First: RRIRCRPPRLPRPRPRPTITPRP
Second: RRIRGRPPRLPRPRPRPQPVPRP
The “shrunken log2 fold change” value of the first is lower: -0.44 for the first, 0.285 for the second.

First: RRIRIRPPRLPRPRPRPIWHPRP
Second: RRIRPRPPRLPRPRPRPKKIPRP
The “shrunken log2 fold change” value of the first is lower: -0.455 for the first, 0.0064 for the second.

Going from RRIRTRPPRLPRPRPRPMCPPRP to RRIRWRPPRLPRPRPRPRQDPRP, the “shrunken log2 fold change” value rises from -0.017 to 0.796.

Compared with RRIRRRPPRLPRPRPRPEIWPRP, RRIRWRPPRLPRPRPRPVDIPRP is lower in “shrunken log2 fold change” value: 0.621 for the first, 0.101 for the second.

Compared with RRIRFRPPRLPRPRPRPCYNPRP, RRIRSRPPRLPRPRPRPEWHPRP is higher in “shrunken log2 fold change” value: -0.255 for the first, 0.0472 for the second.

Compared with RRIRRRPPRLPRPRPRPQTWPRP, RRIRHRPPRLPRPRPRPNNDPRP is lower in “shrunken log2 fold change” value: 0.345 for the first, -0.727 for the second.

RRIRERPPRLPRPRPRPYMEPRP and RRIRYRPPRLPRPRPRPYWTPRP are within 0.2 log units of each other in “shrunken log2 fold change” value: 0.0111 for the first, -0.00804 for the second.

Compared with RRIRMRPPRLPRPRPRPLAQPRP, RRIRSRPPRLPRPRPRPFFIPRP is lower in “shrunken log2 fold change” value: 0.634 for the first, -0.547 for the second.

RRIRPRPPRLPRPRPRPWTWPRP and RRIRFRPPRLPRPRPRPLHLPRP are within 0.2 log units of each other in “shrunken log2 fold change” value: -0.0128 for the first, -0.166 for the second.

RRIRARPPRLPRPRPRPSMYPRP and RRIRRRPPRLPRPRPRPCAYPRP are within 0.2 log units of each other in “shrunken log2 fold change” value: 0.0294 for the first, 0.0425 for the second.

RRIRDRPPRLPRPRPRPEDVPRP and RRIRQRPPRLPRPRPRPFYAPRP are within 0.2 log units of each other in “shrunken log2 fold change” value: -0.0018 for the first, -0.0278 for the second.

Going from RRIRVRPPRLPRPRPRPYWNPRP to RRIRDRPPRLPRPRPRPVDAPRP, the “shrunken log2 fold change” value rises from -0.574 to -0.0229.

RRIRPRPPRLPRPRPRPPMWPRP and RRIRMRPPRLPRPRPRPTAGPRP are within 0.2 log units of each other in “shrunken log2 fold change” value: 0.412 for the first, 0.396 for the second.

Going from RRIRRRPPRLPRPRPRPLVWPRP to RRIRQRPPRLPRPRPRPPSLPRP, the “shrunken log2 fold change” value falls from 0.529 to 0.149.

RRIRYRPPRLPRPRPRPQESPRP and RRIRMRPPRLPRPRPRPPYDPRP are within 0.2 log units of each other in “shrunken log2 fold change” value: -0.0191 for the first, 0.0745 for the second.

RRIRSRPPRLPRPRPRPKGRPRP and RRIRSRPPRLPRPRPRPLMQPRP are within 0.2 log units of each other in “shrunken log2 fold change” value: 0.0764 for the first, -0.0707 for the second.

Going from RRIRWRPPRLPRPRPRPMCWPRP to RRIRCRPPRLPRPRPRPFYRPRP, the “shrunken log2 fold change” value falls from 0.883 to -0.313.

Compared with RRIRYRPPRLPRPRPRPWWMPRP, RRIRVRPPRLPRPRPRPMSFPRP is higher in “shrunken log2 fold change” value: -0.452 for the first, -0.157 for the second.

RRIRFRPPRLPRPRPRPACTPRP and RRIRNRPPRLPRPRPRPLQCPRP are within 0.2 log units of each other in “shrunken log2 fold change” value: -0.148 for the first, -0.00595 for the second.

Compared with RRIRTRPPRLPRPRPRPHQNPRP, RRIRMRPPRLPRPRPRPFQYPRP is higher in “shrunken log2 fold change” value: -0.253 for the first, 0.00421 for the second.

First: RRIRARPPRLPRPRPRPCQEPRP
Second: RRIRLRPPRLPRPRPRPHMGPRP
The “shrunken log2 fold change” value of the first is higher: 0.094 for the first, -0.386 for the second.

Going from RRIRKRPPRLPRPRPRPQGTPRP to RRIRFRPPRLPRPRPRPNMWPRP, the “shrunken log2 fold change” value falls from -0.0539 to -0.485.

Compared with RRIRDRPPRLPRPRPRPNMKPRP, RRIRHRPPRLPRPRPRPDESPRP is lower in “shrunken log2 fold change” value: 0.818 for the first, 0.0491 for the second.

Compared with RRIRYRPPRLPRPRPRPSLMPRP, RRIRMRPPRLPRPRPRPFWTPRP is higher in “shrunken log2 fold change” value: -0.556 for the first, 0.0652 for the second.

For RRIRTRPPRLPRPRPRPVKCPRP, the “shrunken log2 fold change” value was -0.0123.
